Laboratory results: patent US20230012273A1 (Boehringer Ingelheim, published 2023)

T1: mouse SIRPα extracellular domain + His-tag (NP_031573) (mouse, UniProt P97797 32-373)
T1 chain: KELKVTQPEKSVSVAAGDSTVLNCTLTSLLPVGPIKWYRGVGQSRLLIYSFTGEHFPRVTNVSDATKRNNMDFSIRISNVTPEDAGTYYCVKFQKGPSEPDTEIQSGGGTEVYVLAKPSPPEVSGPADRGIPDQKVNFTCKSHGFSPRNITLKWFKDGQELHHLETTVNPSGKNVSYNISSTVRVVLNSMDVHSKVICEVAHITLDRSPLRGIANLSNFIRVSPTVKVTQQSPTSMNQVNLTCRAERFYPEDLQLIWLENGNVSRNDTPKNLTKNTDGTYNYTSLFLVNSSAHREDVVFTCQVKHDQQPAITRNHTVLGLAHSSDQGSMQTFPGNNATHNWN

T2: cynomolgus SIRPα extracellular domain + His-tag (NP_001271679) (cynomolgus monkey)
T2 construct: also called CySIRPα NP_001271679; cynoSIRPα
T2 chain: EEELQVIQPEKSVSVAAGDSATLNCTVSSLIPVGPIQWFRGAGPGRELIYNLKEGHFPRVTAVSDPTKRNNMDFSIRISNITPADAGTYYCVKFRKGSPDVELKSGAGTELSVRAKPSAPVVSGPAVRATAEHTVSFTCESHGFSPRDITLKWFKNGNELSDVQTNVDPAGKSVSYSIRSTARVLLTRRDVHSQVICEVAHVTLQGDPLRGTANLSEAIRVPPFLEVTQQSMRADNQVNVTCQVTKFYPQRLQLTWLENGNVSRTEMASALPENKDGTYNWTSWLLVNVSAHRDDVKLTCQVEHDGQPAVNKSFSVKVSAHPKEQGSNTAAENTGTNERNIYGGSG

T3: cynomolgus SIRPα extracellular domain + His-tag (EGM_02252) (cynomolgus monkey)
T3 construct: also called CySIRPα EGM_02252; cynoSIRPα
T3 chain: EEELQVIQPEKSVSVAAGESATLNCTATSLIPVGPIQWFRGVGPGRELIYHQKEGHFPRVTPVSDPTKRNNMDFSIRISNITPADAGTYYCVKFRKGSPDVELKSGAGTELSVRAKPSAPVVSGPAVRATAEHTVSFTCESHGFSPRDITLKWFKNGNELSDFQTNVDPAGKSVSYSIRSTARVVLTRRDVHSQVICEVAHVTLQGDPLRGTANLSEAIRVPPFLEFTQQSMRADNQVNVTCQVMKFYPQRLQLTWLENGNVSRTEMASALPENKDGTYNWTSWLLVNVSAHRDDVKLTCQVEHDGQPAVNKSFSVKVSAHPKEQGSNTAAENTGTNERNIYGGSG

T4: full-length cynomolgus SIRPα (XP_015313155) on CHO cells, clone P3HD10 (cynomolgus monkey, UniProt A0A2K5VYQ9 31-507)
T4 construct: whole, on cells; also called XP_015313155 Clone P3HD10
T4 sequence: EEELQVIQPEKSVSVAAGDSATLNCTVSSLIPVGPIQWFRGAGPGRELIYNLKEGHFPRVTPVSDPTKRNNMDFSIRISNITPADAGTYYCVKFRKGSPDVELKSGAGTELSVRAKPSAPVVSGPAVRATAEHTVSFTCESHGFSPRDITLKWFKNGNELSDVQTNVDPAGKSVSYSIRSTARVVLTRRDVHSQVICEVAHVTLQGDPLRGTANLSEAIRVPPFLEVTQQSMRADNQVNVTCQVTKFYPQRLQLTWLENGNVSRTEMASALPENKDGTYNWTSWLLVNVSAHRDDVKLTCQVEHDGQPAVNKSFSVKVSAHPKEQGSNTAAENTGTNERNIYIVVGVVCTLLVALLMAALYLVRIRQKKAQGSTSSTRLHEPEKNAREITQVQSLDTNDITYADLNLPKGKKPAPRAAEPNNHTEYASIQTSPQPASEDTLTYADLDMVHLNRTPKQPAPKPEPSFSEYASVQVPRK


Columns and labels:
[1] = biological target: T5, human SIRPβ1 extracellular domain + His-tag (NP_006056.2) (human, UniProt O00241 30-371); assay: SPR, Ab captured, ECD-His analyte
T5 construct: also called hSIRPβ1; HuSIRPβ1
In short: (§1)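 In HBS-EP+ (1×), captured antibodies are exposed to a twofold concentration series of SIRP extracellular domain carrying a His tag, using 300 s contact at 30 μl/min and a 600 s dissociation window.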

[2] = biological target: T1, mouse SIRPα extracellular domain + …; assay: SPR, Ab captured, ECD-His analyte
In short: as §1

[3] = biological target: T2, cynomolgus SIRPα extracellular domain + …; assay: SPR, Ab captured, ECD-His analyte
In short: as §1

[4] = biological target: T3, cynomolgus SIRPα extracellular domain + …; assay: SPR, Ab captured, ECD-His analyte
In short: as §1

[5] = biological target: T6, full-length human SIRPγ (NP_061026.2) on cells (human, UniProt Q9P1W8 29-387); assay: flow cytometry, primary human CD3+ T cells; endogenous SIRPγ on primary human CD3+ T cells
T6 construct: on CHO and Expi-CHO cells; endogenous on primary human CD3+ T cells; also called γ WT
Description: Antibody binding to primary human T cells expressing endogenous SIRPγ is evaluated by flow cytometry. Human peripheral blood mononuclear cells (PBMCs) are blocked with donkey IgG and incubated on ice with increasing concentrations of antibody for 60 minutes, washed and stained with AF647-conjugated donkey F(ab′)₂ anti-human IgG secondary reagent. […] Cells are washed, fixed, and analyzed by flow cytometry. Median fluorescent intensity of CD3+ gated population is determined and used as a measure of antibody binding.

[6] = biological target: T4, full-length cynomolgus SIRPα …; assay: flow cytometry, CHO cells
Description: Antibody binding to cells expressing cynomolgus (cyno) SIRPα was evaluated by flow cytometry. CHO-K1 cells expressing full-length cyno SIRPα; derived from protein sequence accession numbers (A) EGM-02252; (B) XP_015313155; or (C) NP_001271679, are blocked with donkey IgG and incubated on ice with increasing concentrations of antibodies for 60 minutes, washed and stained with AF647-conjugated donkey F(ab′)₂ anti-human IgG secondary reagent. Cells are washed, fixed, and analyzed by flow cytometry. Median fluorescent intensity is determined and used as a measure of antibody binding.

T5 sequence (O00241 other isoform, or with tags, fused parts or gaps): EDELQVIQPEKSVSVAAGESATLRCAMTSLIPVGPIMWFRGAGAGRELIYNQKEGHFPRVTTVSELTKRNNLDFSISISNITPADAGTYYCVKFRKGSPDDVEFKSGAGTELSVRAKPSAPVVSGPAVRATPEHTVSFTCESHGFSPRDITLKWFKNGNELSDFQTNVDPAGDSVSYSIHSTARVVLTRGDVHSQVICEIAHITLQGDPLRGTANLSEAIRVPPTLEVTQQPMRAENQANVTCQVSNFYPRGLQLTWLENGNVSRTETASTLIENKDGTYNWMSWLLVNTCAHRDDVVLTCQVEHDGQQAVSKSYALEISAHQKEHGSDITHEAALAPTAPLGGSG
T6 sequence (Q9P1W8 29-387): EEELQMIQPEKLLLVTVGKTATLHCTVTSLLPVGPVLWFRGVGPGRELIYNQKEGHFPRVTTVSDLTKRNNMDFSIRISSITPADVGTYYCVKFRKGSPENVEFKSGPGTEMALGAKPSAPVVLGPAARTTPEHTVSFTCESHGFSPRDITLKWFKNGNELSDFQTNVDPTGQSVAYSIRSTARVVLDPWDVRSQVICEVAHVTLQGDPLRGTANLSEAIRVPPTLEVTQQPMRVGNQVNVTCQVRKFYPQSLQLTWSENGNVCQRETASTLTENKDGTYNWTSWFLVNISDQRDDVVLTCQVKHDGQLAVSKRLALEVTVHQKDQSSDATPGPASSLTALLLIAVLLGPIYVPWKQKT

| Binder | Kd [1] [nM] | binding result [2] | Kd [3] [nM] | Kd [4] [nM] | binding result [5] | EC50 [6] [nM] |
| --- | --- | --- | --- | --- | --- | --- |
| Antibody A (antibody, human IgG1, kappa, L234A L235A) heavy: not shown light: DIQMTQSPSSLSASVGDRVTITCRASQDINNYLAWFQQKPGKAPKSLIYTASSLHSGVPSKFSGSGSGTDFTLTISSLQPEDFATYYCQQYVSYPYTFGQGTKLEIKRTVAAPSVFIFPPSDEQLKSGTASVVCLLNNFYPREAKVQWKVDNALQSGNSQESVTEQDSKDSTYSLSSTLTLSKADYEKHKVYACEVTHQGLSSPVTKSFNRGEC | 78.2 | no binding | 453 | 201 | no binding | – |
| Anti-SIRPα antibody KWAR23 (antibody, V domains shown) VH: EVQLQQSGAELVKPGASVKLSCTASGFNIKDYYIHWVQQRTEQGLEWIGRIDPEDGETKYAPKFQDKATITADTSSNTAYLHLSSLTSEDTAVYYCARWGAYWGQGTLVTVSS VL: QIVLTQSPAIMSASPGEKVTLTCSASSSVSSSYLYWYQQKPGSSPKLWIYSTSNLASGVPARFSGSGSGTSYSLTISSMEAEDAASYFCHQWSSYPRTFGAGTKLELK | – | – | – | – | – | 0.5 |
